From article PMC1557830

How the values were obtained:
[1] = molecular target: SIV transmembrane glycoprotein gp41 (SIVmneE11S), naturally truncated intra-viral domain of 17 amino acids, on virions (SIV (strain SIVmneE11S)) (UniProt P05885); test: cryo-EM structure; cryo-electron tomography of vitrified intact SIVmneE11S virions; 2,986 spikes extracted, aligned and averaged with 3-fold symmetrisation; 28 Å (0.5 FSC); Env unliganded, in situ on the viral membrane
[2] = molecular target: SIV surface glycoprotein gp120 (SIVmneE11S), on virions (SIV (strain SIVmneE11S)) (UniProt P05885); test: as above

| Substance | stoichiometry N [1] | stoichiometry N [2] |
| --- | --- | --- |
| SIV transmembrane glycoprotein gp41 (SIVmneE11S), naturally truncated intra-viral domain of 17 amino acids, on virions (from UniProt P05885 529-882) (natural protein) | 3 | – |
| SIV surface glycoprotein gp120 (SIVmneE11S), on virions (from UniProt P05885 23-528) (natural protein) | – | 3 |
